Target: T1, MORC2 dephosphorylated (wild-type) (Homo sapiens, UniProt Q9Y6X9 1-1032)
T1 sequence: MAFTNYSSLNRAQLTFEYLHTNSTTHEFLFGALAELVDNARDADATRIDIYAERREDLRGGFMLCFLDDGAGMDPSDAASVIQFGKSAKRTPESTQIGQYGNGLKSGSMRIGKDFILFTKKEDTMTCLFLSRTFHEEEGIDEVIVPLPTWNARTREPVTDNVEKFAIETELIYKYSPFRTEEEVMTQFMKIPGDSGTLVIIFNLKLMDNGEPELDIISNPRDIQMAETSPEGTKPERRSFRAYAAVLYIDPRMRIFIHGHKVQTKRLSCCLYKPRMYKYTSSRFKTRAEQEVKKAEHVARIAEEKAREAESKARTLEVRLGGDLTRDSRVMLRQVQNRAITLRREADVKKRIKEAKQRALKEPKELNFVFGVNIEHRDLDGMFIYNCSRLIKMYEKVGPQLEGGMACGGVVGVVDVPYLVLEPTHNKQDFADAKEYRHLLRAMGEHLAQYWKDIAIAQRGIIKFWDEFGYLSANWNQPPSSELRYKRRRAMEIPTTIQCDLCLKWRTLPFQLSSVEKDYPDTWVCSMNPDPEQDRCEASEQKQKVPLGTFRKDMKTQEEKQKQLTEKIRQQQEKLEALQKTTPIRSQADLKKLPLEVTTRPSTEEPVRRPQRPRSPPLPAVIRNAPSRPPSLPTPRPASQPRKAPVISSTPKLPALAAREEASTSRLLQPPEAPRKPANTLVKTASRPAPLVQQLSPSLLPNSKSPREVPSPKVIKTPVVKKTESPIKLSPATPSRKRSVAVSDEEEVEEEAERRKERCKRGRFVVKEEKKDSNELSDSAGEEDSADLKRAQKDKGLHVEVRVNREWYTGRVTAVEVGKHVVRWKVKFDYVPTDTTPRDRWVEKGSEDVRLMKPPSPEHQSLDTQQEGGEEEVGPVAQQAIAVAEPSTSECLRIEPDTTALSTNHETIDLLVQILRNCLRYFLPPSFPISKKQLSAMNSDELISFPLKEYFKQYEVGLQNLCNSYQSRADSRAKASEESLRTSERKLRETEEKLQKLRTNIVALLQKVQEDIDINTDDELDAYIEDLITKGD
Experiment: fluorescence anisotropy; apo; second listing ('5 or less'); FA/EMSA: 50 mM NaCl, 3 mM MgCl2, 20 mM Na-HEPES pH 7.4, 1 mM TCEP, 10% glycerol, 0.025 mM ZnCl2, 50 ug/ml BSA, room temperature; 1 nM nucleic acid (FA) or 20 nM DNA (EMSA)
Details: protein: recombinant; tags: tag removed by TEV; chain copies: 2; label: 5'-6-FAM; blunt

B1: Random 35mer dsDNA (dsDNA)
DNA 1: ATAGGGTCCATCAGAATTCGGATGAACTCGGTGTG
DNA 2: CACACCGAGTTCATCCGAATTCTGATGGACCCTAT
Question: With B1 as the binder, how does the Kd read?
Answer: The Kd was under 5 nM.

Reference: paper PMC11879086, “Identification and characterization of a human MORC2 DNA binding region that is required for gene silencing” (Nucleic Acids Research, 2024)
